This note sets out measurements from patent US20260166139A1 (AKESO BIOPHARMA, published 2026).

The target of experiment [1] is T1, CTLA4-mFc.
T1 construct: also called CTLA4ECD-mFc fusion protein; CTLA4 antigen
The experiment in a line: competitive ELISA, competitor B7-2. The protocol: (§1) After incubation at 37° C. for 40 minutes, the enzyme conjugated secondary antibody was added. After incubation at 37° C. for 30 minutes, the absorbance at 450 nm was detected on an ELISA plate reader.
Target sequence in this assay (chain, as listed by the source limits assumed): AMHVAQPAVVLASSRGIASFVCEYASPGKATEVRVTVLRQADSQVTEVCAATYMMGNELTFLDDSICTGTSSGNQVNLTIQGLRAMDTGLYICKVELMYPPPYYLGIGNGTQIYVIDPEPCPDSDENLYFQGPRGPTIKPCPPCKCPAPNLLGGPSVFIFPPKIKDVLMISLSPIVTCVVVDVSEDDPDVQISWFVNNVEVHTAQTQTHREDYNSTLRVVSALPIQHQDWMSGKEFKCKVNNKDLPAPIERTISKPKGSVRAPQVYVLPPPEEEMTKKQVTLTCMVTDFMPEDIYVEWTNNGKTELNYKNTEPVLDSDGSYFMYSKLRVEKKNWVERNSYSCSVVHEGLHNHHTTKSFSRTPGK
(In general: In an ELISA, binding on a coated surface is turned into a signal by an enzyme label.)

The target in experiment [2] is T1, CTLA4-mFc. The experiment in a line: competitive ELISA, competitor B7-1. As for the experimental part: as §1
Target sequence in this assay (chain, as listed by the source limits assumed): as above
For experiment [3], the target named is T2, CTLA4 antigen on the surface of 293F-CTLA4 host cells (UniProt P16410 36-223, limits assumed).
T2 construct: whole, on cells
T2 sequence (looked up): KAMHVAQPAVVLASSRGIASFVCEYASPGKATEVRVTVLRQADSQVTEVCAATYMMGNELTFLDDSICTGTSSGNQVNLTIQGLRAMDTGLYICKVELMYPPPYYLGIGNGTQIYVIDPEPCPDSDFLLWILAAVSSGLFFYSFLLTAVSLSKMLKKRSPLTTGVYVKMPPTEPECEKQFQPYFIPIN
The experiment can be described thus: flow cytometry, 293F-CTLA4 cells. As for the experimental part: (§2) After addition of 300 μL PBS, the fluorescent signal was detected using the FITC channel on the flow cytometer.
In general terms: A flow cytometer gives signals particle by particle.

Experiment [4] addresses T2, CTLA4 antigen on the surface of …. The experiment can be described thus: flow cytometry, 293F-CTLA4 cells; antibody 0.001 nM. The protocol:
as §2

For experiment [5] the target is unchanged. The experiment in a line: flow cytometry, 293F-CTLA4 cells; antibody 5 nM. The protocol:
as §2

Experiment [6] shares this target. The experiment in a line: flow cytometry, 293F-CTLA4 cells; antibody 0.1 nM. The protocol:
as §2

The target is the same in experiment [7]. The experiment in a line: flow cytometry, 293F-CTLA4 cells; antibody 0.01 nM. As for the experimental part: as §2
For experiment [8] the target is unchanged. The experiment in a line: flow cytometry, 293F-CTLA4 cells; antibody 1 nM. The protocol: as §2
For experiment [9] the target is unchanged. The experiment can be described thus: flow cytometry, 293F-CTLA4 cells; antibody 25 nM. As for the experimental part: as §2
For experiment [10] the target is unchanged. The experiment can be described thus: flow cytometry, 293F-CTLA4 cells; antibody 10 nM. The protocol: as §2
The target in experiment [11] is T3, CTLA4 antigen (NCBI Gene ID: 1493) obtained by TEV protease cleavage of CTLA4-mFc (Homo sapiens (Human), UniProt P16410 37-161).
T3 construct: also called the antigen CTLA4
T3 sequence: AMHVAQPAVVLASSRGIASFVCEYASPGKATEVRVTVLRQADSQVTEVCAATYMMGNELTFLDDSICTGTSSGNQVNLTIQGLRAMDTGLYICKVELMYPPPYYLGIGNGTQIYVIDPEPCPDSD
The experiment can be described thus: BLI (Fortebio), antibody on AR2G sensor, CTLA4 in solution. As for the experimental part:
2. […] After equilibration in PBST, the CTLA4 antigen was added for binding. […] Dissociation occurred in PBST.
A general note: In BLI a coated tip is dipped into the sample, and binding shifts an interference pattern.

Another experiment addresses T4, human CTLA4 (human, UniProt P16410 36-161, limits assumed).
T4 construct: also called human CTLA4 antigen; CTLA4 protein
T4 sequence (looked up): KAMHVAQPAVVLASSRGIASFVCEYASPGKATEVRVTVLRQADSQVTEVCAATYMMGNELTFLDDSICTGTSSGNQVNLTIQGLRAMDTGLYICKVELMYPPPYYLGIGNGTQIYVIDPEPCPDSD
The experiment can be described thus: ELISA on coated CTLA4, source Human. As for the experimental part: (§3) The ELISA plate was coated with CTLA4 at 4° C. over night. […] The enzyme conjugated secondary antibody was added for incubation for 30 min. Then, the absorbance at 450 nm was determined on an ELISA plate reader.

For experiment [12], the target named is T1, CTLA4-mFc. The experiment can be described thus: competitive ELISA, competitor B7-2; second of three tests. The protocol:
as §1

In experiment [13] the target is T1, CTLA4-mFc. The experiment in a line: competitive ELISA, competitor B7-1; second of three tests. The protocol: as §1
The target of experiment [14] is T1, CTLA4-mFc. The experiment in a line: competitive ELISA, competitor B7-2; third of three tests. As for the experimental part: as §1
Experiment [15] concerns the target T1, CTLA4-mFc. The experiment can be described thus: competitive ELISA, competitor B7-1; first of three tests; competitor B7-1; first of three tests, the run with controls 10D1 5.15 nM and 11.2.1 1.073 nM. As for the experimental part:
as §1

Experiment [16] deals with T1, CTLA4-mFc. The experiment in a line: competitive ELISA, competitor B7-1; third of three tests. As for the experimental part: as §1
For experiment [17], the target named is T1, CTLA4-mFc. The experiment can be described thus: competitive ELISA, competitor B7-2; first of three tests. As for the experimental part:
as §1

The target in experiment [18] is T1, CTLA4-mFc. The experiment can be described thus: competitive ELISA, CTLA4-mFc coated, competitor B7/2-His; antibody 1 µg/ml. As for the experimental part:
as §1

A further experiment deals with T5, monkey CTLA4-hFc (monkey).
T5 construct: also called monkey CTLA4 antigen
The experiment in a line: ELISA on coated CTLA4, source Monkey. The protocol: as §3

B1: 8D2 recombinant antibody, 8D2(Re) (antibody, V domains shown)
VH: EVKLDETGGGLVQPGRPMKLSCVASGFTFSDNWMNWVRQSPEKGLEWLAQIRNKPYNYETYYSDSVKGRFTISRDDSKSSVYLQMNNLRGEDMGIYYCTAQFAYWGQGTLVTVSA
VL: DIQMTQSPASLSASVGETVTITCGTSENIYGGLNWYQRKQGKSPQLLIFGATNLADGMSSRFSGSGSGRQYSLKISSLHPDDVATYYCQNVLRSPFTFGSGTKLEI
By EC50 is commonly meant the concentration needed to bring the measured effect to its halfway point. B1: the EC50 with CTLA4-mFc [1] is 0.153 nM; with CTLA4-mFc [2], 0.514 nM.

B2: 8D2 recombinant antibody, 8D2(Re) (antibody, V domains shown)
VH: EVKLDETGGGLVQPGRPMKLSCVASGFTFSDNWMNWVRQSPEKGLEWLAQIRNKPYNYETYYSDSVKGRFTISRDDSKSSVYLQMNNLRGEDMGIYYCTAQFAYWGQGTLVTVSA
VL: DIQMTQSPASLSASVGETVTITCGTSENIYGGLNWYQRKQGKSPQLLIFGATNLADGMSSRFSGSGSGRQYSLKISSLHPDDVATYYCQNVLRSPFTFGSGTKLEI
B2 registered an EC50 in experiment [3] of 1.38 nM. Besides, the fluorescence intensity was 24.6 in experiment [4]; 714 in experiment [5]; 66.7 in experiment [6]; 24.7 in [7]; 321 in experiment [8]; 873 in experiment [9]. The molecule further displayed a fluorescence intensity in experiment [10] of 898.

B3: monoclonal antibody 8D2 (antibody, V domains shown)
VH: EVKLDETGGGLVQPGRPMKLSCVASGFTFSDNWMNWVRQSPEKGLEWLAQIRNKPYNYETYYSDSVKGRFTISRDDSKSSVYLQMNNLRGEDMGIYYCTAQFAYWGQGTLVTVSA
VL: DIQMTQSPASLSASVGETVTITCGTSENIYGGLNWYQRKQGKSPQLLIFGATNLADGMSSRFSGSGSGRQYSLKISSLHPDDVATYYCQNVLRSPFTFGSGTKLEI
notes: Murine antibody purified from hybridoma supernatant; also called mAb 8D2; antibody secreted by the CTLA4-8D2 hybridoma cell line LT001
A word on the Kd: it is the equilibrium constant for the complex coming apart. For orientation: koff means a measure of how fast the partners let go of each other. What is called kon is a measure of how fast the partners come together. In experiment [3], B3 registered an EC50 of 3.84 nM. Moreover, the affinity in experiment [11], expressed as Kd, was 0.166 nM. Also, in experiment [11], the koff is 2.36e-05 s⁻¹. Moreover, in [11], the kon was 142000 M⁻¹ s⁻¹. For the same molecule, the fluorescence intensity in experiment [4] was determined as 7.6; in experiment [5], 183; in experiment [6], 9.1; in [7], 7.7; in experiment [8], 25.5; in [9], 722. Further, the fluorescence intensity in experiment [10] turned out to be 639.

B4: humanized antibody 8D2H2L15 (antibody, V domains shown)
VH: EVQLVESGGGLVQPGGSMRLSCAASGFTFSDNWMNWVRQAPGKGLEWLAQIRNKPYNYETYYSASVKGRFTISRDDSKNSVYLQMNSLKTEDTGVYYCTAQFAYWGQGTLVTVSS
VL: DIQMTQSPSSLSASVGDRVTITCRTSENIYGGLNWYQRKPGKSPKLLIYGATNLASGVSSRFSGSGSGTDYTLTISSLQPEDVATYYCQNVLSRHPGFGSGTKLEIK
In experiment [11], B4 had a Kd of 1.02 nM, a koff of 0.000465 s⁻¹ and an on-rate (kon) of 454000 M⁻¹ s⁻¹. The EC50 with human CTLA4 was determined as 0.042 nM.

B5: humanized antibody 8D2H2L2 (antibody, V domains shown)
VH: EVQLVESGGGLVQPGGSMRLSCAASGFTFSDNWMNWVRQAPGKGLEWLAQIRNKPYNYETYYSASVKGRFTISRDDSKNSVYLQMNSLKTEDTGVYYCTAQFAYWGQGTLVTVSS
VL: DIQMTQSPSSLSASVGDRVTITCRTSENIYGGLNWYQRKPGKSPKLLIYGATNLASGVSSRFSGSGSGTDYTLTISSLQPEDVATYYCQNVLRSPFTFGSGTKLEIK
notes: also called 8D2H2L2(20150327); 8D2H2L2(20140422)
For B5, the EC50 was determined as 0.368 nM with CTLA4-mFc [12]; 2.97 nM with CTLA4-mFc [13]; 0.301 nM with CTLA4-mFc [14]; 5.93 nM with CTLA4-mFc [15]; 3.12 nM with CTLA4-mFc [16]; 1.64 nM with CTLA4-mFc [17]. In the experiment with CTLA4-mFc [18], the “absorbance at 450 nm” value worked out at 0.05.

B6: humanized antibody 8D2H2L17 (antibody, V domains shown)
VH: EVQLVESGGGLVQPGGSMRLSCAASGFTFSDNWMNWVRQAPGKGLEWLAQIRNKPYNYETYYSASVKGRFTISRDDSKNSVYLQMNSLKTEDTGVYYCTAQFAYWGQGTLVTVSS
VL: DIQMTQSPSSLSASVGDRVTITCRTSENIYGGLNWYQRKPGKSPKLLIYGATNLASGVSSRFSGSGSGTDYTLTISSLQPEDVATYYCQNVLSSRPGFGSGTKLEIK
Consider B6, for which, in experiment [11], the affinity, expressed as Kd, was 0.766 nM; the koff worked out at 0.000352 s⁻¹; the kon stood at 459000 M⁻¹ s⁻¹. Besides, in the experiment with human CTLA4, the 50% effective concentration (EC50) amounted to 0.047 nM.

B7: humanized antibody 8D2H3L3 (antibody, V domains shown)
VH: EVQLVESGGGLVQPGGSLRLSCAASGFTFSDNWMNWVRQAPGKGLEWVAQIRNKPYNYETEYAASVKGRFTISRDDSKNSAYLQMNSLKTEDTAVYYCTAQFAYWGQGTLVTVSS
VL: DIQMTQSPSSLSASVGDRVTITCRASENIYGGLNWYQQKPGKAPKLLIYGATSLASGVPSRFSGSGSGTDYTLTISSLQPEDFATYYCQNVLRSPFTFGSGTKLEIK
Take B7: the figures for the concentration for a half-maximal effect (EC50) in the experiment with CTLA4-mFc [1] and with CTLA4-mFc [2] were 0.167 nM and 2.14 nM, respectively.

B8: humanized antibody 8D2H3L3 (antibody, V domains shown)
VH: EVQLVESGGGLVQPGGSLRLSCAASGFTFSDNWMNWVRQAPGKGLEWVAQIRNKPYNYETEYAASVKGRFTISRDDSKNSAYLQMNSLKTEDTAVYYCTAQFAYWGQGTLVTVSS
VL: DIQMTQSPSSLSASVGDRVTITCRASENIYGGLNWYQQKPGKAPKLLIYGATSLASGVPSRFSGSGSGTDYTLTISSLQPEDFATYYCQNVLRSPFTFGSGTKLEIK
With B8, the EC50 worked out at 4.54 nM in experiment [3], 0.385 nM with monkey CTLA4-hFc and 0.129 nM with human CTLA4. For the same molecule, binding in experiment [11] was put at a Kd of 1.05 nM. Moreover, the koff in experiment [11] stood at 0.000327 s⁻¹. The kon in experiment [11] was determined as 312000 M⁻¹ s⁻¹. The fluorescence intensity stood at 10.8 in [4]; 971 in experiment [5]; 108 in experiment [6]; 25.1 in [7]; 623 in [8]; 1090 in experiment [9]. The molecule further displayed a fluorescence intensity in experiment [10] of 1080.

B9: humanized antibody 8D2H1L1 (antibody, V domains shown)
VH: EVQLVESGGGLVQPGGSMRLSCAASGFTFSDNWMNWVRQAPGKGLEWLAQIRNKPYNYETYYSDSVKGRFTISRDDSKNSVYLQMNSLKTEDTGVYYCTAQFAYWGQGTLVTVSS
VL: DIQMTQSPSSLSASVGDRVTITCRTSENIYGGLNWYQRKQGKSPKLLIYGATNLASGMSSRFSGSGSGTDYTLKISSLHPDDVATYYCQNVLRSPFTFGSGTKLEIK
For the molecule B9, the EC50 with CTLA4-mFc [1] worked out at 0.178 nM; in the experiment with CTLA4-mFc [2], 2.48 nM.
